This is an account of results in ChEMBL document CHEMBL1129705, “Synthesis of phosphinic acid transition state analogues for the reaction catalysed by kynureninase” (Bioorg Med Chem Lett, 1996).

For orientation: Km means the substrate concentration at which the rate is half of its maximum.

Substrate in the series: Nc1ccccc1C(=O)C[C@H](N)C(=O)O
As to conditions: Pseudomonas fluorescens.

Description: Compound was evaluated for its binding affinity against kynureninase isolated from Pseudomonas fluorescence

B1: Kynureninase (Homo sapiens), Q16719 (protein)
chain: MEPSSLELPADTVQRIAAELKCHPTDERVALHLDEEDKLRHFRECFYIPKIQDLPPVDLSLVNKDENAIYFLGNSLGLQPKMVKTYLEEELDKWAKIAAYGHEVGKRPWITGDESIVGLMKDIVGANEKEIALMNALTVNLHLLMLSFFKPTPKRYKILLEAKAFPSDHYAIESQLQLHGLNIEESMRMIKPREGEETLRIEDILEVIEKEGDSIAVILFSGVHFYTGQHFNIPAITKAGQAKGCYVGFDLAHAVGNVELYLHDWGVDFACWCSYKYLNAGAGGIAGAFIHEKHAHTIKPALVGWFGHELSTRFKMDNKLQLIPGVCGFRISNPPILLVCSLHASLEIFKQATMKALRKKSVLLTGYLEYLIKHNYGKDKAATKKPVVNIITPSHVEERGCQLTITFSVPNKDVFQELEKRGVVCDKRNPNGIRVAPVPLYNSFHDVYKFTNLLTSILDSAETKN
Regarding B1, the Michaelis-Menten constant (Km) worked out at 25.6 µM.
